# Assays:
# [1] = target: Taq DNA polymerase (rTaq) (Thermus aquaticus) (UniProt P19821); test: FP_none
# [2] = target: Tth DNA polymerase (rTth) (Thermus thermophilus) (UniProt P52028); test: filter
# [3] = target: Taq DNA polymerase (rTaq) (Thermus aquaticus) (UniProt P19821); test: filter; settings: room temperature
# Chain of Taq DNA polymerase (rTaq) (Thermus aquaticus) (P19821 whole entry): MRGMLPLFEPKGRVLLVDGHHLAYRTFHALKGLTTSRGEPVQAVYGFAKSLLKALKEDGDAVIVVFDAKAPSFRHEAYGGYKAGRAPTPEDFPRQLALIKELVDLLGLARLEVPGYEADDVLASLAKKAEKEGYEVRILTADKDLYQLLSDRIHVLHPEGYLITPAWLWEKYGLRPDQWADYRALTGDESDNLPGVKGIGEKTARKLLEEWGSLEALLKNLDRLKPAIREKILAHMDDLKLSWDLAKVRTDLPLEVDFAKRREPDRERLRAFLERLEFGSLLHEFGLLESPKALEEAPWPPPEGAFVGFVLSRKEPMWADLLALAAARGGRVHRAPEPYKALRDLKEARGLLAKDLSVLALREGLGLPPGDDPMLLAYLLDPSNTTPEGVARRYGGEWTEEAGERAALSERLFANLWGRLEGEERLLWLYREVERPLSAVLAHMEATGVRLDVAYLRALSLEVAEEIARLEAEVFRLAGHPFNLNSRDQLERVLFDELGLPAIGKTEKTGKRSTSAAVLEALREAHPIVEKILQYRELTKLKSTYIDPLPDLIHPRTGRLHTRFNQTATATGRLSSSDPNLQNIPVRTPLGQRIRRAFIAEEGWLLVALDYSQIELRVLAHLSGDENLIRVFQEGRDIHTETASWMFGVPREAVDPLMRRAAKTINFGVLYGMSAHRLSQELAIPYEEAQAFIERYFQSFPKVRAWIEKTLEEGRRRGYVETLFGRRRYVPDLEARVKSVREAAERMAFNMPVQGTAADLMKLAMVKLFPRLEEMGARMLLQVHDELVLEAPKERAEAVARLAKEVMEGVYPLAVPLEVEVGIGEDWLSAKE
# Chain of Tth DNA polymerase (rTth) (Thermus thermophilus) (P52028 whole entry): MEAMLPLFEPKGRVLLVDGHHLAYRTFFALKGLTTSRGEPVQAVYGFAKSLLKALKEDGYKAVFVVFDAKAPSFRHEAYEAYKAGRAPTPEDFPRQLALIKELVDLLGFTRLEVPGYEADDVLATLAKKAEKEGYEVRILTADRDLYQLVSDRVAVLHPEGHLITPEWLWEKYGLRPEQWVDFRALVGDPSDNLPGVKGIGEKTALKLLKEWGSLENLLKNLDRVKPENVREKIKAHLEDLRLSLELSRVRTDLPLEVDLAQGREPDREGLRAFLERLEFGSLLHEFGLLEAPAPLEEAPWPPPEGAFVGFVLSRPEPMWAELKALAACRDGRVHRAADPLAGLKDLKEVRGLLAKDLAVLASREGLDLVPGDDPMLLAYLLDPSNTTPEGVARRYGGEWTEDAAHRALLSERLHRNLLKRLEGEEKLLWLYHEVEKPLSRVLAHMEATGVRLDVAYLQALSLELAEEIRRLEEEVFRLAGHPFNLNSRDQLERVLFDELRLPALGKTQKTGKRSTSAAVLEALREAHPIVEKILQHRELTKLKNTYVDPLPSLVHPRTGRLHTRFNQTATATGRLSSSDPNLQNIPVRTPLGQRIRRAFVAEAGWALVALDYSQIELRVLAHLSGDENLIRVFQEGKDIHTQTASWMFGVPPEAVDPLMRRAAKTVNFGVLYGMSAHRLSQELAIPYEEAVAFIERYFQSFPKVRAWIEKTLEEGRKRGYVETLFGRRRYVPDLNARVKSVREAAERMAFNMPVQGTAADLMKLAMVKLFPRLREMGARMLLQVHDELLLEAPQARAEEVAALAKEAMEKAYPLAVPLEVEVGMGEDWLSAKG
sequence,measurement,setting,value
TTCTCGGTTGGTCTCTGGCGGAGCNNNNNNNNNNNNNNNNNNNNNNNNNNNNNNTCTTGTGTATGATTCGCTTTTCCC [Taq-enriched ssDNA pool (round 12)],Kd,[1],3.5 nM
same,Kd,"[2]; cross binding of Taq-selected pool, room temperature",0.2 nM
TTCTCGGTTGGTCTCTGGCGGAGCNNNNNNNNNNNNNNNNNNNNNNNNNNNNNNTCTTGTGTATGATTCGCTTTTCCC [Tth-enriched ssDNA pool (round 10)],Kd,"[3]; cross binding of Tth-selected pool, saturates at about 50%, about half of pool not interacting",0.3 nM
same,Kd,"[2]; 50 mM Bicine-KOH pH 8.3, 90 mM KCl, 3.5 mM Mn(OAc)2, tRNA, 0.01% hSA, room temperature",5 nM
TTCTCGGTTGGTCTCTGGCGGAGCNNNNNNNNNNNNNNNNNNNNNNNNNNNNNNTCTTGTGTATGATTCGCTTTTCCC [unselected random 30N ssDNA pool],Kd,"[3]; unselected pool, 10 mM Tris-HCl pH 8.3, 50 mM KCl, 2.5 mM MgCl2, tRNA, 0.01% hSA",> 50 nM
same,Kd,"[2]; unselected pool, Bicine-KOH pH 8.3, 90 mM KCl, 3.5 mM Mn(OAc)2, room temperature",70 nM
